Experiments:
Test in all cases: cell-based or functional assay
[1] = target: human mutant CSF-1R L301S Y969F, on cells (human) (UniProt P07333)
[2] = target: human wildtype CSF-1R (wt CSF-1R), full-length, on cells (human) (UniProt P07333)
[3] = target: CSF-1R of cynomolgous monocytes (cynomolgous)

% inhibition at 20 µg/ml, mutant CSF-1R cells [1]	Substance	Mutant CSF-1R IC30 (cell viability, 3D culture, CellTiterGlo) [1]	wtCSF-1R IC30 (cell viability, 3D culture, CellTiterGlo) [2]	Mutant CSF-1R IC50 (cell viability, 3D culture, CellTiterGlo) [1]	% inhibition (of survival) = (100% - % survival) [3]	% survival (cynomolgous monocytes, 5 µg/ml antibody) [3]	wtCSF-1R IC50 (cell viability, 3D culture, CellTiterGlo) [2]
0%	goat polyclonal anti-CSF-1R antibody ab10676 (abcam)	> 20 µg/mL	14.2 µg/mL				
	Anti CSF-1R SC 2-4A5 (Santa Cruz Biotechnology, US) (antibody)	2.56 µg/mL	16.6 µg/mL	10 µg/mL	69%	31%	10 µg/mL

Reference: patent publication US20110165156A1
